Assay results published in publication PMC6751060 (mBio, 2019).

T1: RicF (YlbF) of Bacillus subtilis (B. subtilis, UniProt O34412 1-149)
T1 construct: also called RicF^Bsu
T1 sequence (looked up): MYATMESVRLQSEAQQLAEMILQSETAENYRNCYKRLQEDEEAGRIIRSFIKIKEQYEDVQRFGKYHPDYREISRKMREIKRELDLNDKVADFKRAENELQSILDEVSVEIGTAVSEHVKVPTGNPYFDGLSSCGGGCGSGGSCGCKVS

B1: RicA (YmcA) of Bacillus subtilis (natural protein, B. subtilis, UniProt O31779 1-143, looked up)
chain: MTLYSKKDIVQQARNLAKMISETEEVDFFKRAEAQINENDKVSTIVNQIKALQKQAVNLKHYEKHEALKQVEAKIDALQEELEEIPVIQEFRDSQMEVNDLLQLVAHTISNQVTNEIITSTGGDLLKGETGSKVKHSNNSCSL
notes: also called RicA^Bsu
B2: RicA (YmcA) of Bacillus subtilis, expressed alone and purified (natural protein, B. subtilis)
chain: B1 chain
notes: also called RicA dimer; GST-RicA
B3: RicA residues 1 to 122 (C-terminally truncated, for crystallography) (domain or fragment, B. subtilis, UniProt O31779 1-122, looked up)
chain: MTLYSKKDIVQQARNLAKMISETEEVDFFKRAEAQINENDKVSTIVNQIKALQKQAVNLKHYEKHEALKQVEAKIDALQEELEEIPVIQEFRDSQMEVNDLLQLVAHTISNQVTNEIITSTG
notes: also called truncated RicA; RicA (amino acids 1 to 122)
B4: RicF residues 1 to 121 (C-terminally truncated, for crystallography) (domain or fragment, B. subtilis, UniProt O34412 1-121, looked up)
chain: MYATMESVRLQSEAQQLAEMILQSETAENYRNCYKRLQEDEEAGRIIRSFIKIKEQYEDVQRFGKYHPDYREISRKMREIKRELDLNDKVADFKRAENELQSILDEVSVEIGTAVSEHVKV
notes: also called truncated RicF

What was measured:
[1] = molecular target: RicA of Bacillus anthracis (B. anthracis); experiment: AUC
[2] = molecular target: T1, RicF (YlbF) of Bacillus subtilis; experiment: pull-down; conditions: partners not purified
[3] = molecular target: the molecule itself; experiment: SEC; […]; 20 mM Tris-HCl pH 8.0, 150 mM NaCl, 1 mM DTT
[4] = molecular target: the molecule itself; experiment: crystal structure
[5] = molecular target: B3; experiment: crystal structure; RicAF crystals; hanging drop, 18% PEG 500 MME, 8% MPD, 100 mM sodium nitrate, 100 mM MOPS, sodium HEPES pH 7.3; conditions: both partners purified

RicF of Bacillus anthracis (natural protein)
stoichiometry N [1]: 1

B1
binding result [2]: binds

B2
stoichiometry N [3]: 2

B3
binding result [4]: binds

B4
binding result [5]: binds
